{
  "source": "patent US20210309702A1",
  "assay_in_all_cases": "cell-based or functional assay",
  "key": {"[1]": {"biological_target": "superfolder GFP tagged VSV-G (VSV-G-sfGFP) (Vesicular Stomatitis Virus (Indiana strain)) (UniProt P03522)"}, "[2]": {"biological_target": "VSV-G fused with GFP11 at its C terminus (VSV-G-GFP11) (Vesicular Stomatitis Virus (Indiana strain)) (UniProt P03522)"}, "[3]": {"biological_target": "VSV-G fused with GFP11 at its C terminus (VSV-G-GFP11) (Vesicular Stomatitis Virus (Indiana strain)) (UniProt P03522)", "remark": "listed apart in the source"}},
  "note": "Read-outs that look alike come from different tables or passages of the source.",
  "data": [
    {"substance": "Cre recombinase fused with GFP1-10 (Cre-GFP1-10) (from UniProt P06956 1-343)", "values": [
      {"measurement": "293ColorSwitch cells switched to GFP", "setting": "[1]", "value": 2.6, "unit": "%"},
      {"measurement": "293ColorSwitch cells switched to GFP", "setting": "[2]", "value": 66.9, "unit": "%"},
      {"measurement": "293ColorSwitch cells switched to GFP", "setting": "[3]", "value": "> 80", "unit": "%"}
    ]}
  ]
}
